Earlier results as cited in publication PMC9074927.
Where two headings read alike, the source gives them in different places.

Tests used:
[1] = target: histone H3 (Homo sapiens) (UniProt P68431)
[2] = target: histone H3 (Homo sapiens) (UniProt P68431); remark: listed apart in the source

Row | Kd [1] [nM] | Kd [2] [nM] | Substance
1 | 600 | – | CBX1 chromodomain (from UniProt P83916)
2 | – | 130 | CBX1 eReader chromodomain (from UniProt P83916)
